The DeepSol protein solubility set

Test: soluble on expression in E. coli; label from the status in PepcDB or PDB records

| Sequence | soluble on expression in E. coli |
| --- | --- |
| MSLTPDAQVATAQRDDQALISEGKDLYDVACITCHGVNLQGVEDRGPSLVGVGEGAVYFQVHSGRMPILRNEAQAERKAPRYTEAQTLAIAAYVAANGGGPGLVYNEDGTLAMEELRGENYDGQITSADVARGGDLFRLNCASCHNFTGRGGALSSGKYAPNLDAANEQEIYQAMLTGPQNMPKFSDRQLSADEKKDIIAFIKSTKEGHHHHHH | soluble |
| MAICILHYTNAQLARDWSFQQMCNFWGGEQTYHARKDGFKSLEGDKCTFNFPKASDNQKSAQQYCEDNVPYHINNAEASEYKTTCEAEATLICKSGWVQMFGRCYKITKTMMTRDKAEKHCKNQQDQTSTIAFMHREALPFRWNDYFTRVSRIWMDASEVVTNDLIYDVEGGNVLLAFDGYKYNLPNVAIARVSKDETAMVLCEYTPPMTKSESNYLLRRYGEIYYPPLVTSEAVYIRTTSSRIRNEEDKLADHKYCTEVMKPVFRGGRAQSASPTQGLHMPTQMRGINKSAPFKQNPTIKGEAVPFPLDNAIWRKGEPNESCDAATWSSAVVLSRRENEGLEVMSDARYAPIYCEQIVKGLSYTKCPDGFVEYYRKNEGKTWCHKYVWDDTANYDNAEQKCQQLGAHLSSFTSDEEFQFLNDMIAKSEQLPNTDYIEVLLGARRRKRCNDLSIVGRGGFSSDKESECSRRRVFEWLHDVAENPPNFLDAYWPSPYEPNHALVDEECLVMMSGKTNGGMVMEQGN | not soluble |
| QALIKEARLTPKPGLVDSTNNGSHQDMSLSTFEQSAIALRPFFTQFVLMGIETTNLPDSHILSKIRPLGLQAEQAMFVATNQVNTHKGAIFAFGLVCTALGRHFSRWQNKMMSSPSFEISQDTTGISLISETVARFTQGITDELKNYSKNQPLTAGITLYQQYGFTGARGEAEKGFPLVQQAVVFILSQAESEMRWYWALLYLMANNNDTNIVHRGGINGLQFIQDEAHKRLGNAKNLQNANALMASLREFDDDCIARNLSPGGSADLLALTIFFLSLLYC | not soluble |
| MEARTTDLSDLYPEGEALPMVFKSFGGRARFAGRVRTLRVFEDNALVRKVLEEEGAGQVLFVDGGGSLRTALLGGNLARRAWEKGWAGVVVHGAVRDTEELREVPIGLLALAATPKKSAKEGKGEVDVPLKVLGVEVLPGSFLLADEDGLLLLPEPPSGVRSGG | soluble |
| MGSDKIHHHHHHMEHISQLTAEIRDKAAYPDILVISRIFLPKEAVIGEYMYNRCLQDPERVIVLAASCSGDKVFDEGQQFPVYRWFYPRYWRSGFVGNILKPFVNIVCSFVLAIKLYFRYHYRYIEWGHGYDFPSLLLLSYLLPIRFFIYLHGNDFLCTLHNPVLRSLFKLTLKRAEGIVCNSSYTQDYLRTALRLDTPTYVINPVIRPEKFGNNVGSPSSLDDLRVRVRQAYNIPDSAIVILSIGRLVKHKAFDQVIDNIPLLLTFGVDVHYIICGEGPSESELKSLVHRLRVDKCVHFAGYVAERELAGYYAACDIFAMLTLLDSKPNNMEGFGMVYLEASYFGKPIIAPRLGGVLDTVQHEENGILVNPNSGYEVFQAFNRLCKDQQLREQLGRKGKELAKRRTLHRSLYKSEGKNPIL | not soluble |
| MSDITLREAQKSVDQWIKTLGIRYFNELTNMAILTEEVGEVARIIARRYGEQSEKESDKSKDLADEMADVLWVLLCLANQTGVDLTTAFHKNIEKKTVRDKERHQQNTKLHNNGSK | soluble |
| EQKVEAFNIQYKSRTSFKVQVKLNAQGKYQKSQVQSYLQQIGLNDGDLKQESGTLSADLIFTYTVPESNLFSRKNFDTLMKKINFNTTLKIDMVGKDEIMKKILQSTTFTNNLSSQTFQDQSIDLLPYLLYS | not soluble |
| MPKSNPVTPNKQPSEDWNELLTEFRGKGGRALQKTFIRKLWAVQEDIIANANPSTLRCIFFAPALLICPEGIKLSAEILPKIGVGNGLILLEKLILKFNLTDTECQRYGEVFVTAWRNAYQEANFDLTEELETDVISVMCQHALYAHRPTCTKFQNVIAAFAHAKKLDKSVDEMVTRLLNGCLYRALDAPNYIVQSSAAEVFFNFYPLIGEDTEDMDRIMENQHRYMMDLLRSDVISIRSEATKHVLKAISEFWLLIPKNIVKELMGYIIDTVAKDTVVSVRVAVFEGLNEMAFVPACLTAFEYGLKCAVDPALQDKSERVRLAAYQIISRLKNHKFISVFDIITRDDAIAKLDLENVETCRRQLIPIMHICLPISKSLDEAYYRPRVNYMLGKSRLALLSYFRLLGPMKIIDASQASKLIEMFITWAYRYLRKKDGPPLPETAEGYKKARAYLECALILYMSCKGMLMSDGDGTSKAKCDQIFGKVVKEIFEKYANTPILGTATAISSVIPKDYLKSIANDVLARLEDDDVPPEAVEPFLESAIHFNPDSVFDSFDSGLNVLVNLYGTKQSKKKRRELEDPEDVLIMTLNRLKYLLQSHSTSNLIAMKDEYRTKVLDLLKKIDLIREGIEIRLAKEEGQEHTLSDDVLLSILEFRFILPFFAATNGSEDAADRNQTIESMKNLLLWFEKNISSQMATFGEHNQDFLIQLTSTFLNCVNVSLSAYDFKTRPVEFEDEEDNENRDPREENDAAKDQATVAEVISRIVKSFCNSSTPFEIFRPALRVGTTLCDESYSEVHHEMALLLRFIPKWMNKQCDLMEDDEENIFKNHREIVESLRQFHKRVSETDYWDEDSAKRMMHHFMLFSIVSASSKNDDEAYDDPRDEDYKPPHFISLALIKFILKEKSLTEDIIEEISTNYIPEDSKYFTAEEGELKTDEKLSKLAALSQLLRILERYSKFHGKLIKEAIDKCTTRVLDCFANASDLNTVAHHILNSLSSLLDVQLPDENRL | not soluble |
| MGSDKIHHHHHHMSKIDELVFTPKQQDTITFPFQNVTLEVNEGTPRSGKTTADIFKMAYIYSISEDQNHLVTAYNQEQAFRLFMDGDGFGLMHIFGNLAEMKHDEHGDHLLIHSPNGPKKIYYKGGGKINSVGAITGMSLGTVTFLEINLLHKDFIEECFRRTFAAKNRFHLAELNPPAPNHPVLEIFSQYEKSGRYKWRHWTAKDNPALSDERKQEIYNEVKHSAYLLQRDWYGKRVLPAGIIYETFDVEANQIKKMQGHPIEMVFFGDGGQQDATVCECYVITEHEAEGGYTYNLNQVATYYHSGRDTGQVKAGSTYAIEIKQFIQWCMKEYEVPVNEPVFIDPACRWLREELEKVGVDTAGADNNAHDVTGKAQGIEVGIERMQSLLSERRYLLVEQPNDQYDHYSWLQEIGMYVRDENSGKPVDKNNHAMDTSRYATNYFYRNYEDI | not soluble |
| MICNCFLLIIVTLVISNCDGICLNHEGWGNVGSVFTDPLCNVWCEIKLCGPGQCIEDPMTTAPARCVCEKCYRDNSGNAVYPGGNNDYQQQAQMNRERQLDRQYNRQLRQQNRMNKAWQRGWQ | not soluble |
| MGLADDAPLGYLLYRVGAVLRPEVSAALSPLGLTLPEFVCLRMLSQSPGLSSAELARHASVTPQAMNTVLRKLEDAGAVARPASVSSGRSLPATLTARGRALAKRAEAVVRAADARVLARLTAPQQREFKRMLEKLGSD | not soluble |
| MGSDKIHHHHHHVITLWGRLNSHNVKKVAWALIEMDLPHQRRDIGGQFGYTTDYLAKNPNRMVPMIEEGELALWESNAILRYLADRHAPAFRSDDPVVRAQGDKWMDWQFHFADAQRDAFLGCVRHGKDASDPAVATSATAAAGMMAILDEELARRPWLSGDRFGIADIPMGVYAHTYHSLPIERPDLPHLADWYARLRTRPGYASQVMIPLI | not soluble |
| GYSNAGLVNNLAGKLIANYWLDKVYSKEEGYAHRNGDVHIHDLDCLTGYCAGWSLRSLLNEGFNGVRGRVESRAPKHLREALGQMANFLGILQSEWAGAQAFSSFDTYLAPYVFRDQLEFKEIKKAIKSFVYNLNVPARWGQSPFTNVTIDWTVPADLKDQIPTRNDRHLFEDIQEDALLVQEAQKRGASSLLSMTYKYFQAEMNLINRAFYEVMTEGDKTGQPFTFPIPTVNITEDFDWHGENTDLLFENTAKIGSSYFQNFIGSQYIRNEKGELVENPEAYKPNAVRSMCCRLQLDLRELLKRGGGLFGSAEMTGSIGVVTLNMARLGYRFRGDREGLMAELTKLMDLSKSTLEKKRQAVTELFHRGLYPYTKRYLPGFNNHFSTIGVNGINEMIRNFTNDQDNISSPSGMAFATEILEFMRERIRSYQEETGNLYNLEATPAEGTTYRFAKEDKKRYPQIIQAGMEENVYYTNSSQLPANFTDDPFEALTLQDELQCKYTGGTVLHLYMREKISSAEACRKLVKTVITSYKLPYITITPVFSVCPKHGYLRGEHEYCPLCDEEALLEIEQSQCC | not soluble |
| MIHITSQACFLWHTTINKICNRPMFNPLTIRFWGVRGSIPCPGSHTVRYGGNTPCVEIQANGQRIILDGGTGLRVLGEHLMGQQPVTAHLFFTHTHWDHIQGFPFFQPAFVPGNQFHIYAVPGKNGQGIERRLNDQMLHPNFPVPLQIMGGDLRFYDLEVGERVHLGDGVVVSNEALNHPGGGVGYRVSWQGIHVAYITDTEHLPDRLHPGAFALADHADVMIYDATYTDEEYYHPQQSKVGWGHSTWQEAVKLAQAAQVKQLILFHHDPSHDDDCLDRIGELARAQFPQTLLAREGLIISVYPNVIHFPATPQASLEHHHHHH | not soluble |
| GSDIGQVIHPDDFDKAAADDYVLHEDGEKIYFLIKSKTDEYCFTNLALVHLDGESAVSSKRVLYRYPYAHYPIRHVMFETAGTVDLDVEIKFEIGGKHYSIDVDKKQLEHVKDLYKALLAIAEKQYEGQKMLEFANSSLNHSVTILGGLRQGDMNVPQTFKDLSQESFDWLQGHYYKWNQKDFGSFYEKYINN | soluble |
| MGSDKIHHHHHHMRYPEGMALQNKFPILWDCFLQRINDALKATTQEELGRRLGVGKSAITKWRHGSTRGADLQDFLRYCDVLGIDFCGIINGTPTPTYSPSPFEIALTGVLDSFLSVHNLTHEKAASSLWPETANGAAKLGSILTAKEPLTPEVLMQLCLLMEEDPGKLLRLARERVQPEGEQISGNAKSA | not soluble |
| MFEHLCNIDDMTIIGQRSNPLNEDWNEWTLVICTKCKKVYEWQHHSEEQMHGGDLAITAIATDDYLHHKYNINEQDIPQILNKKKKIRRYDRYKKIYLEDYV | not soluble |
| MSTVTITDLARENVRNLTPYQSARRLGGNGDVWLNANEYPTAVEFQLTQQTLNRYPECQPKAVIENYAQYAGVKPEQVLVSRGADEGIELLIRAFCEPGKDAILYCPPTYGMYSVSAETIGVECRTVPTLDNWQLDLQGISDKLDGVKVVYVCSPNNPTGQLINPQDFRTLLELTRGKAIVVADEAYIEFCPQASLAGWLAEYPHLAILRTLSKAFALAGLRCGFTLANEEVINLLMKVIAPYPLSTPVADIAAQALSPQGIVAMRERVAQIIAEREYLIAALKEIPCVEQVFDSETNYILARFKASSAVFKSLWDQGIILRDQNKQPSLSGCLRITVGTREESQRVIDALRAEQV | soluble |
| MKTLQDSIIFRHGAKIKGRIVQPPMLTNSGNDGYVTQDALDYYAARSQSAGMIIVEYTTVSENGGPSRSWARDREQLTIYDDKFKPGMAKLATVIKKMGIKLYYNWSIPVEKLIISLNWVSRFMHQVR | not soluble |
| NTGFDINGMVSKIVSAERVPKQQRIDNERTNIDTSISAYGRLRESLDTMKNLMTQFRQEKAFAVRKVDTSNEQVVSATATTEAIAGNYSVDVLQLAQ | not soluble |
| MGSDKIHHHHHHMQINRLFEIIYILLENRTITAAELAERFEVSARTIYRDVEILAQGGMPIYMSKGKGGGISLLPDFILNKAVLTEEEKSEILSSLQAFNAVNLSKSETALSKLTSMLGAKNTDWIEVDFSSWGHFENDRAYFENIKTAIIEKKIITFMYASGKAEKLLREVLPLKLVFKGAAWYLYGYCTLRRDYRFFKLRRITELAVTDTGFEMKTPETIFAGQKLDTGTYLKAKLLISKTMAFRVYDEISSYEIDEKGDFVCRLYLPDIATLCTYAASFGEHCIILSPEQAVAEMKRRLQNSLKNYS | not soluble |
